Results: patent US20240058465A1 (SUTRO BIOPHARMA, published 2024)

Columns and labels:
human ROR1 (hROR1) [1] = molecular target: T1, human ROR1 (hROR1) (human, UniProt Q01973 30-937); assay: cell-based or functional assay
human ROR1 (hROR1) [2] = molecular target: T1, human ROR1 (hROR1); assay: flow cytometry, HCT116-hROR1 cells
[3] = molecular target: T2, human ROR1 Frizzled domain (hROR1-Fz) (human, UniProt Q01973 165-305); assay: SPR Biacore, IgG on anti-Fc, ROR1-Fz analyte
T2 construct: Acro Biosystems, made in HEK293
Procedure, shortened: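 Test antibodies captured on an anti-Fc surface (CM5 chip), then analyte bound for 180 s with 600 s dissociation at 25° C in HBS-EP+ buffer at 50 μL/min. Human ROR1 ECD, Frizzled or Kringle domain used as analyte; regeneration with 10 mM glycine pH 2.0.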

[4] = molecular target: receptor tyrosine kinase orphan receptor 1 (ROR1) on Ntera-2 cells (human, UniProt Q01973 30-937); assay: cell-based or functional assay

B1: SRP2193-C02 (antibody, IgG1, V domains shown)
VH: EVQLVESGGGLVQPGGSLRLSCAASGFNISDYYIHWVRQAPGKGLEWVGTIDPQSGSTVYADSVKGRFTISADTSENTAYLQMNSLRAEDTAVYYCARSRWFRVLWSFVFDYWGQGTLVTVSS
VL: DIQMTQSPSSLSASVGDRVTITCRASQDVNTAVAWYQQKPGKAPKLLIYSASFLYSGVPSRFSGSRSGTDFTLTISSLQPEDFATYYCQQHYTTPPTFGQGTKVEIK
notes: His/FLAG-tagged IgG1, cell-free; also called Antibody 81
Mino Nb-PBD, drug-conjugated 2° antibody Cell Killing EC50 (human ROR1 (hROR1) [1]): 0.0034 nM | Mino Nb-PBD, drug-conjugated 2° antibody Cell Killing Span (human ROR1 (hROR1) [1]): 62% | Bmax (MFI) (human ROR1 (hROR1) [2]): 15800 MFI | Kd (human ROR1 (hROR1) [2]): 0.85 nM | Kd [3]: 6.2 nM | koff [3]: 0.00173 s⁻¹ | kon [3]: 278000 M⁻¹ s⁻¹

B2: SRP2193-E06 (antibody, IgG1, V domains shown)
VH: EVQLVESGGGLVRPGGSLRLSCAASGFNIDDYYIHWVRQAPGKGLEWVGVIDPKNGSTVYADSVKGRSTISADTPKSTAYLQMNSLRAEDTAVYYCARSRWFRVLWSYVFDYWGQGTLVTVSS
VL: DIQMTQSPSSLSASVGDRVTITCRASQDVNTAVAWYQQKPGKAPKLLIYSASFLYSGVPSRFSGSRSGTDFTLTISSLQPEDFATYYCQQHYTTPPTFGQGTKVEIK
notes: His/FLAG-tagged IgG1, cell-free; also called Antibody 73
Mino Nb-PBD, drug-conjugated 2° antibody Cell Killing EC50 (human ROR1 (hROR1) [1]): 0.0025 nM | Mino Nb-PBD, drug-conjugated 2° antibody Cell Killing Span (human ROR1 (hROR1) [1]): 63% | Bmax (MFI) (human ROR1 (hROR1) [2]): 14700 MFI | Kd (human ROR1 (hROR1) [2]): 5.82 nM | Kd [3]: 2.23 nM | koff [3]: 0.000246 s⁻¹ | kon [3]: 111000 M⁻¹ s⁻¹

B3: SRP2193-D04 (antibody, IgG1, V domains shown)
VH: EVQLVESGGGLVQPGGSLRLSCAASGFNINGFYIHWVRQAPGKGLEWVGAIDPNGGSTVYADSVKGRFTISADTSKNTAYLQMNSLRAEDTAVYYCARSRWYRVLWSYAFDYWGQGTLVTVSS
VL: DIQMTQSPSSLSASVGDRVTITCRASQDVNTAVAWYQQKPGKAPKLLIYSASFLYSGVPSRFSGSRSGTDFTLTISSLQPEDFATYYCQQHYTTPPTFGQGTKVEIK
notes: His/FLAG-tagged IgG1, cell-free; also called Antibody 71
Mino Nb-PBD, drug-conjugated 2° antibody Cell Killing EC50 (human ROR1 (hROR1) [1]): 0.0045 nM | Mino Nb-PBD, drug-conjugated 2° antibody Cell Killing Span (human ROR1 (hROR1) [1]): 65% | Bmax (MFI) (human ROR1 (hROR1) [2]): 15000 MFI | Kd (human ROR1 (hROR1) [2]): 0.7 nM | Kd [3]: 2.81 nM | koff [3]: 0.000292 s⁻¹ | kon [3]: 104000 M⁻¹ s⁻¹

B4: SRP2193-D06 (antibody, IgG1, V domains shown)
VH: EVQLVESGGGLVQPGGSLRLSCAASGFNIRDYYIHWVRQAPGKGLEWVRAIDPHSGSTVYADSVKGRFTISADTSKNTAYLQMNSLRAEDTAVYYCARSRWFRVLWSYVFDYWGQGTLVTVSS
VL: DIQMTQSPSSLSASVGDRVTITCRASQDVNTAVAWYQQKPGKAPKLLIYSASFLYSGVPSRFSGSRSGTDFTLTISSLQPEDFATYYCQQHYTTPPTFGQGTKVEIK
notes: His/FLAG-tagged IgG1, cell-free; also called Antibody 80
Mino Nb-PBD, drug-conjugated 2° antibody Cell Killing EC50 (human ROR1 (hROR1) [1]): 0.0057 nM | Mino Nb-PBD, drug-conjugated 2° antibody Cell Killing Span (human ROR1 (hROR1) [1]): 68% | Bmax (MFI) (human ROR1 (hROR1) [2]): 14300 MFI | Kd (human ROR1 (hROR1) [2]): 0.28 nM | Kd [3]: 101 nM | koff [3]: 0.6 s⁻¹ | kon [3]: 5.94e+06 M⁻¹ s⁻¹

B5: SRP2193-C09 (antibody, IgG1, V domains shown)
VH: EVQLVESGGGLVQPGGPLRLSCAASGFNINHSYIHWVRQAPGKGLEWVGAIDPISGSTVYADSVKGRFTISADTSKNTAYLQMNSLRAEDTAVYYCARSRWSRVLWSYVFDYWGQGTLVTVSS
VL: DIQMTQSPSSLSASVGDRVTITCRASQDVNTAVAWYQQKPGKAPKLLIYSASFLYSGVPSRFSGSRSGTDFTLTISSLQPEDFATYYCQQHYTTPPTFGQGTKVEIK
notes: His/FLAG-tagged IgG1, cell-free; also called Antibody 118
Mino Nb-PBD, drug-conjugated 2° antibody Cell Killing EC50 (human ROR1 (hROR1) [1]): 0.0016 nM | Mino Nb-PBD, drug-conjugated 2° antibody Cell Killing Span (human ROR1 (hROR1) [1]): 64% | Bmax (MFI) (human ROR1 (hROR1) [2]): 15500 MFI | Kd (human ROR1 (hROR1) [2]): 0.35 nM | Kd [3]: 2.22 nM | koff [3]: 0.000394 s⁻¹ | kon [3]: 178000 M⁻¹ s⁻¹

B6: SRP2193-C11 (antibody, IgG1, V domains shown)
VH: EVQLVESGGGLVQPGGSLRLSCAASGFNIADSYIHWVRQAPGKGLEWVAVIDPKSGSTNYADSVKGRFTISADTSKNTAYLQMNSLRAEDTAVYYCARSRWFRVLWSYVFDYWGQGTLVTVSS
VL: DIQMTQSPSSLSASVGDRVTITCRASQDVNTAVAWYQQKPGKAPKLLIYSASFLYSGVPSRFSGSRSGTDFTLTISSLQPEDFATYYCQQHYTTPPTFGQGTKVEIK
notes: His/FLAG-tagged IgG1, cell-free
Mino Nb-PBD, drug-conjugated 2° antibody Cell Killing EC50 (human ROR1 (hROR1) [1]): 0.0015 nM | Mino Nb-PBD, drug-conjugated 2° antibody Cell Killing Span (human ROR1 (hROR1) [1]): 63% | Bmax (MFI) (human ROR1 (hROR1) [2]): 15700 MFI | Kd (human ROR1 (hROR1) [2]): 0.64 nM | Kd [3]: 2.37 nM | koff [3]: 0.000273 s⁻¹ | kon [3]: 115000 M⁻¹ s⁻¹

B7: SRP2193-E05 (antibody, IgG1, V domains shown)
VH: EVQLVESGGGLVQPGGSLRLSCAASGFNIKRSYIHWVRQAPGKGLEWVVSIDPNGSSTHYADSVKGRFTISADTSKNTAYLQMNSLRAEDTAVYYCARSRWFRVLWSYVLDYWGQGTLVTVSS
VL: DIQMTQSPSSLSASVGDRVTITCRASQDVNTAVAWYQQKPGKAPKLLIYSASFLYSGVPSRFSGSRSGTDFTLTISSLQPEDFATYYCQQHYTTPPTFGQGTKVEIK
notes: His/FLAG-tagged IgG1, cell-free; also called Antibody 84
Mino Nb-PBD, drug-conjugated 2° antibody Cell Killing EC50 (human ROR1 (hROR1) [1]): 0.00034 nM | Mino Nb-PBD, drug-conjugated 2° antibody Cell Killing Span (human ROR1 (hROR1) [1]): 70% | Bmax (MFI) (human ROR1 (hROR1) [2]): 18300 MFI | Kd (human ROR1 (hROR1) [2]): 0.1 nM | Kd [3]: 0.674 nM | koff [3]: 0.000199 s⁻¹ | kon [3]: 295000 M⁻¹ s⁻¹

B8: Conjugate 37 (D04-F404-LP33) (antibody, human IgG1, kappa)
heavy: MEVQLVESGGGLVQPGGSLRLSCAASGFNISDYDIHWVRQAPGKGLEWVGGIDPADGSTDYADSVKGRFTISADTSKNTAYLQMNSLRAEDTAVYYCARDYGVYDYWGQGTLVTVSSASTKGPSVFPLAPSSKSTSGGTAALGCLVKDYFPEPVTVSWNSGALTSGVHTFPAVLQSSGLYSLSSVVTVPSSSLGTQTYICNVNHKPSNTKVDKKVEPKSCDKTHTCPPCPAPELLGGPSVFLFPPKPKDTLMISRTPEVTCVVVDVSHEDPEVKFNWYVDGVEVHNAKTKPREEQYNSTYRVVSVLTVLHQDWLNGKEYKCKVSNKALPAPIEKTISKAKGQPREPQVYTLPPSREEMTKNQVSLTCLVKGFYPSDIAVEWESNGQPENNYKTTPPVLDSDGSFLYSKLTVDKSRWQQGNVFSCSVMHEALHNHYTQKSLSLSPGK
light: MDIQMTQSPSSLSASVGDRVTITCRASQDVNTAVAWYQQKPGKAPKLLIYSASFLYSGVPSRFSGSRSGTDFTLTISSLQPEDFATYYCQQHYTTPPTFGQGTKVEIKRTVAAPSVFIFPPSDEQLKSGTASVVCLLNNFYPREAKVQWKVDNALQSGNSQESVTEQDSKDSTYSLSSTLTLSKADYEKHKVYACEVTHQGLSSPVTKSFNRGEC
modifications: pAMF at F404 (EU), linked to LP33
cell killing EC50, NTERA-2 cells [4]: 0.01 nM | cell killing Span, NTERA-2 cells [4]: 89%

B9: Conjugate 43 (D04-F404-LP26) (antibody, human IgG1, kappa)
heavy: MEVQLVESGGGLVQPGGSLRLSCAASGFNISDYDIHWVRQAPGKGLEWVGGIDPADGSTDYADSVKGRFTISADTSKNTAYLQMNSLRAEDTAVYYCARDYGVYDYWGQGTLVTVSSASTKGPSVFPLAPSSKSTSGGTAALGCLVKDYFPEPVTVSWNSGALTSGVHTFPAVLQSSGLYSLSSVVTVPSSSLGTQTYICNVNHKPSNTKVDKKVEPKSCDKTHTCPPCPAPELLGGPSVFLFPPKPKDTLMISRTPEVTCVVVDVSHEDPEVKFNWYVDGVEVHNAKTKPREEQYNSTYRVVSVLTVLHQDWLNGKEYKCKVSNKALPAPIEKTISKAKGQPREPQVYTLPPSREEMTKNQVSLTCLVKGFYPSDIAVEWESNGQPENNYKTTPPVLDSDGSFLYSKLTVDKSRWQQGNVFSCSVMHEALHNHYTQKSLSLSPGK
light: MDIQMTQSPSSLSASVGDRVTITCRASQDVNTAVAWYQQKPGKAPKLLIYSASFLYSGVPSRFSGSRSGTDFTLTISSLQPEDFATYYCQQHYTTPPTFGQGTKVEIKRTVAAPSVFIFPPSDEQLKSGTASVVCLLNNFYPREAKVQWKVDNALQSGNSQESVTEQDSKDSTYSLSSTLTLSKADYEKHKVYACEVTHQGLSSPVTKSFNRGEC
modifications: pAMF at F404 (EU), linked to LP26
cell killing EC50, NTERA-2 cells [4]: > 10 nM | cell killing Span, NTERA-2 cells [4]: < 10%

B10: Conjugate 45 (D04-F404-LP28) (antibody, human IgG1, kappa)
heavy: MEVQLVESGGGLVQPGGSLRLSCAASGFNISDYDIHWVRQAPGKGLEWVGGIDPADGSTDYADSVKGRFTISADTSKNTAYLQMNSLRAEDTAVYYCARDYGVYDYWGQGTLVTVSSASTKGPSVFPLAPSSKSTSGGTAALGCLVKDYFPEPVTVSWNSGALTSGVHTFPAVLQSSGLYSLSSVVTVPSSSLGTQTYICNVNHKPSNTKVDKKVEPKSCDKTHTCPPCPAPELLGGPSVFLFPPKPKDTLMISRTPEVTCVVVDVSHEDPEVKFNWYVDGVEVHNAKTKPREEQYNSTYRVVSVLTVLHQDWLNGKEYKCKVSNKALPAPIEKTISKAKGQPREPQVYTLPPSREEMTKNQVSLTCLVKGFYPSDIAVEWESNGQPENNYKTTPPVLDSDGSFLYSKLTVDKSRWQQGNVFSCSVMHEALHNHYTQKSLSLSPGK
light: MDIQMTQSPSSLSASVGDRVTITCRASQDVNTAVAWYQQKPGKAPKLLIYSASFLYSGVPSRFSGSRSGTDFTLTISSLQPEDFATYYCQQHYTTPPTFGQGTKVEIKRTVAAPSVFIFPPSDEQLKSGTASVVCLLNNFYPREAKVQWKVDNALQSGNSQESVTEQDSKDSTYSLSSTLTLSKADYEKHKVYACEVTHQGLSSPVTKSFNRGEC
modifications: pAMF at F404 (EU), linked to LP28
cell killing EC50, NTERA-2 cells [4]: > 10 nM | cell killing Span, NTERA-2 cells [4]: < 10%

B11: Conjugate 41 (D04-F404-LP24) (antibody, human IgG1, kappa)
heavy: MEVQLVESGGGLVQPGGSLRLSCAASGFNISDYDIHWVRQAPGKGLEWVGGIDPADGSTDYADSVKGRFTISADTSKNTAYLQMNSLRAEDTAVYYCARDYGVYDYWGQGTLVTVSSASTKGPSVFPLAPSSKSTSGGTAALGCLVKDYFPEPVTVSWNSGALTSGVHTFPAVLQSSGLYSLSSVVTVPSSSLGTQTYICNVNHKPSNTKVDKKVEPKSCDKTHTCPPCPAPELLGGPSVFLFPPKPKDTLMISRTPEVTCVVVDVSHEDPEVKFNWYVDGVEVHNAKTKPREEQYNSTYRVVSVLTVLHQDWLNGKEYKCKVSNKALPAPIEKTISKAKGQPREPQVYTLPPSREEMTKNQVSLTCLVKGFYPSDIAVEWESNGQPENNYKTTPPVLDSDGSFLYSKLTVDKSRWQQGNVFSCSVMHEALHNHYTQKSLSLSPGK
light: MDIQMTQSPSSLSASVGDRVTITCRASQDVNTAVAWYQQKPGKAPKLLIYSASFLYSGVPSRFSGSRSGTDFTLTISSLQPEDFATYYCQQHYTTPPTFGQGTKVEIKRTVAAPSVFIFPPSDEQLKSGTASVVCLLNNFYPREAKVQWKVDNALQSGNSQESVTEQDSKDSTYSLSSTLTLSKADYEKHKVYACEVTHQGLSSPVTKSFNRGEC
modifications: pAMF at F404 (EU), linked to LP24
cell killing EC50, NTERA-2 cells [4]: > 10 nM | cell killing Span, NTERA-2 cells [4]: < 10%

B12: Conjugate 44 (D04-F404-LP27) (antibody, human IgG1, kappa)
heavy: MEVQLVESGGGLVQPGGSLRLSCAASGFNISDYDIHWVRQAPGKGLEWVGGIDPADGSTDYADSVKGRFTISADTSKNTAYLQMNSLRAEDTAVYYCARDYGVYDYWGQGTLVTVSSASTKGPSVFPLAPSSKSTSGGTAALGCLVKDYFPEPVTVSWNSGALTSGVHTFPAVLQSSGLYSLSSVVTVPSSSLGTQTYICNVNHKPSNTKVDKKVEPKSCDKTHTCPPCPAPELLGGPSVFLFPPKPKDTLMISRTPEVTCVVVDVSHEDPEVKFNWYVDGVEVHNAKTKPREEQYNSTYRVVSVLTVLHQDWLNGKEYKCKVSNKALPAPIEKTISKAKGQPREPQVYTLPPSREEMTKNQVSLTCLVKGFYPSDIAVEWESNGQPENNYKTTPPVLDSDGSFLYSKLTVDKSRWQQGNVFSCSVMHEALHNHYTQKSLSLSPGK
light: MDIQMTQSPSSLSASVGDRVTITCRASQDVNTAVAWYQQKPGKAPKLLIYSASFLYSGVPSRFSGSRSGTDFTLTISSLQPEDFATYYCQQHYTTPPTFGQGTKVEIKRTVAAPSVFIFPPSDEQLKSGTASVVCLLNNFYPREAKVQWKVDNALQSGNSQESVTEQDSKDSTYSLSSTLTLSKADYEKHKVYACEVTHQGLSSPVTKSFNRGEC
modifications: pAMF at F404 (EU), linked to LP27
cell killing EC50, NTERA-2 cells [4]: 0.017 nM | cell killing Span, NTERA-2 cells [4]: 80%

B13: Conjugate 42 (D04-F404-LP25) (antibody, human IgG1, kappa)
heavy: MEVQLVESGGGLVQPGGSLRLSCAASGFNISDYDIHWVRQAPGKGLEWVGGIDPADGSTDYADSVKGRFTISADTSKNTAYLQMNSLRAEDTAVYYCARDYGVYDYWGQGTLVTVSSASTKGPSVFPLAPSSKSTSGGTAALGCLVKDYFPEPVTVSWNSGALTSGVHTFPAVLQSSGLYSLSSVVTVPSSSLGTQTYICNVNHKPSNTKVDKKVEPKSCDKTHTCPPCPAPELLGGPSVFLFPPKPKDTLMISRTPEVTCVVVDVSHEDPEVKFNWYVDGVEVHNAKTKPREEQYNSTYRVVSVLTVLHQDWLNGKEYKCKVSNKALPAPIEKTISKAKGQPREPQVYTLPPSREEMTKNQVSLTCLVKGFYPSDIAVEWESNGQPENNYKTTPPVLDSDGSFLYSKLTVDKSRWQQGNVFSCSVMHEALHNHYTQKSLSLSPGK
light: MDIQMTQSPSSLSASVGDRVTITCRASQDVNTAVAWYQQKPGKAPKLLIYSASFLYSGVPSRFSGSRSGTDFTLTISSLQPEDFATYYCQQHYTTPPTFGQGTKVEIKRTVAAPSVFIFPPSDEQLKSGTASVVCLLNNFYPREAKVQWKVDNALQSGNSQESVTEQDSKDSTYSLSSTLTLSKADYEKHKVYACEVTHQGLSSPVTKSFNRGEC
modifications: pAMF at F404 (EU), linked to LP25
cell killing EC50, NTERA-2 cells [4]: 0.075 nM | cell killing Span, NTERA-2 cells [4]: 58%
